Where two headings read alike, the source gives them in different places.
What was measured:
[1] = target: Hepatitis B surface antigen (HBs Ag) (Hepatitis B virus) (UniProt P03141); conditions: magnetic bead pulldown with q-PCR, BD buffer, room temperature
[2] = target: Hepatitis B surface antigen (HBs Ag) (Hepatitis B virus) (UniProt P03141); conditions: magnetic bead pulldown with q-PCR, BD buffer, room temperature; remark: listed apart in the source

Hepatitis B surface antigen (HBs Ag) (Hepatitis B virus), sequence (P03141 175-400): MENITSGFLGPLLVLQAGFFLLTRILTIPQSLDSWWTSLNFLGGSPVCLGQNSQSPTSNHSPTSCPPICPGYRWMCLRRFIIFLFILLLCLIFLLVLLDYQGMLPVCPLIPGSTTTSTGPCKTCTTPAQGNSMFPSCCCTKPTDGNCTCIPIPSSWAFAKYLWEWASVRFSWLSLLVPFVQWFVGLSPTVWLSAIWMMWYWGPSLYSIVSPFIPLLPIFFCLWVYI

AGCAGCACAGAGGTCCCAACCGGAATCTGCACCTCGCGTGCTACCGTGAA [K2-4]
Kd [1]: 31.4 nM

AGCAGCACAGAGGTCCTGCATCACGAAGCCTGGCAGCGTGCTACCGTGAA [MP-1]
Kd [2]: 28.3 nM
